{
  "source": "patent US20220403022A1",
  "about": "(Merck KGaA, published 2022)",
  "binders": {"B1": {"name": "3963H03-12 (antibody, human IgG1, kappa, V domains shown)", "VH": "QVQLVQSGSELKKPGASVKVSCKASGYTFTSYPMNWVRQAPGQGLEWMGWINTNTGNPTYAQGFTGRFVFSLDTSVSTAYLQISSLKAEDTAVYYCARVGGYSVDEYAFDVWGQGTLVTVSS", "VL": "DIQLTQSPSFLSASVGDRVTITCRASQGISSYLAWYQQKPGKAPKLLIYAASTLQSGVPSRFSGSGSGTEFTLTISSLQPEDFATYYCQQLSSYPTFGGGTKVEIKR", "notes": "also called anti-TIGIT H03-12; 39631H03-12"}},
  "key": {"human TIGIT ECD T51A": {"molecular_target": "T1, human TIGIT ECD T51A (human, UniProt Q495A1 22-141)", "T1 construct": "point mutant expressed in E. coli", "T1 chain": "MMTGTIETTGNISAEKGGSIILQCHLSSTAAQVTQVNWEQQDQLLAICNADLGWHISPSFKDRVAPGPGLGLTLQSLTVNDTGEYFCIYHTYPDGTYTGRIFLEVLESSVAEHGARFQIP", "assay": "SPR, antibody captured on anti-human Fc, TIGIT ECD injected"}, "human TIGIT ECD T117A": {"molecular_target": "T2, human TIGIT ECD T117A (human, UniProt Q495A1 22-141)", "T2 construct": "point mutant expressed in E. coli", "T2 chain": "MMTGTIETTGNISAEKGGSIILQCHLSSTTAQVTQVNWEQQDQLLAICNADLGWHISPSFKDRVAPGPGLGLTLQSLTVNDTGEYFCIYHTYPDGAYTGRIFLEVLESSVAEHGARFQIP", "assay": "SPR, antibody captured on anti-human Fc, TIGIT ECD injected"}, "human TIGIT ECD Q53A": {"molecular_target": "T3, human TIGIT ECD Q53A (human, UniProt Q495A1 22-141)", "T3 construct": "point mutant expressed in E. coli", "T3 chain": "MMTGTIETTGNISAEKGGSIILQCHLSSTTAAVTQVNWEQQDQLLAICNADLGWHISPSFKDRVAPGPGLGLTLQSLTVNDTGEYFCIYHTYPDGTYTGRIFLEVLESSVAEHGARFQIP", "assay": "SPR, antibody captured on anti-human Fc, TIGIT ECD injected"}, "human TIGIT ECD Q56A": {"molecular_target": "T4, human TIGIT ECD Q56A (human, UniProt Q495A1 22-141)", "T4 construct": "point mutant expressed in E. coli", "T4 chain": "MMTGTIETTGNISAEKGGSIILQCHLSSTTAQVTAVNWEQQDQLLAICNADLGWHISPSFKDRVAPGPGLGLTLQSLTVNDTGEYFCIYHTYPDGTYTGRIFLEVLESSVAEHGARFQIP", "assay": "SPR, antibody captured on anti-human Fc, TIGIT ECD injected"}, "human TIGIT ECD N70A": {"molecular_target": "T5, human TIGIT ECD N70A (human, UniProt Q495A1 22-141)", "T5 construct": "point mutant expressed in E. coli", "T5 chain": "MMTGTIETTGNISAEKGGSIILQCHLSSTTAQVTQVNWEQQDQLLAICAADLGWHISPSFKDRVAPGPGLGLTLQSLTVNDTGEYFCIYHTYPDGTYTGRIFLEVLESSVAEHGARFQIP", "assay": "SPR, antibody captured on anti-human Fc, TIGIT ECD injected"}, "human TIGIT ECD A71G": {"molecular_target": "T6, human TIGIT ECD A71G (human, UniProt Q495A1 22-141)", "T6 construct": "point mutant expressed in E. coli", "T6 chain": "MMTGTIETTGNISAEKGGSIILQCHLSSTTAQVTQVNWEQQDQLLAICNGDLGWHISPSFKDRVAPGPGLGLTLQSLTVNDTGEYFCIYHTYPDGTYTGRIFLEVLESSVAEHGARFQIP", "assay": "SPR, antibody captured on anti-human Fc, TIGIT ECD injected"}, "[1]": {"molecular_target": "T7, human TIGIT ECD (wild-type, expressed in E. coli) (human, UniProt Q495A1 22-141)", "T7 construct": "also called huTIGIT; wild-type TIGIT", "T7 sequence": "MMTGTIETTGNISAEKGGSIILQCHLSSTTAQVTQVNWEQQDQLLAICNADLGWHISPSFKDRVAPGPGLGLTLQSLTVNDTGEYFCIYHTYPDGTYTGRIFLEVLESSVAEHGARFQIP", "assay": "SPR, antibody captured on anti-human Fc, TIGIT ECD injected"}, "human TIGIT ECD H111A": {"molecular_target": "T8, human TIGIT ECD H111A (human, UniProt Q495A1 22-141)", "T8 construct": "point mutant expressed in E. coli", "T8 chain": "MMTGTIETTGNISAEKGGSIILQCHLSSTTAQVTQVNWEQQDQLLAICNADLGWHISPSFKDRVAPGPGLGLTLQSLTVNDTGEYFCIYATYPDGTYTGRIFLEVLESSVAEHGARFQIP", "assay": "SPR, antibody captured on anti-human Fc, TIGIT ECD injected"}, "human TIGIT ECD Y113A": {"molecular_target": "T9, human TIGIT ECD Y113A (human, UniProt Q495A1 22-141)", "T9 construct": "point mutant expressed in E. coli", "T9 chain": "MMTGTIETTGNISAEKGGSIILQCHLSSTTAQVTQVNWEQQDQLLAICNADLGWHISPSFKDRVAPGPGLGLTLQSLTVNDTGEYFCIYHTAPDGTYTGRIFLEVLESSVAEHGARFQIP", "assay": "SPR, antibody captured on anti-human Fc, TIGIT ECD injected"}, "human TIGIT ECD D115A": {"molecular_target": "T10, human TIGIT ECD D115A (human, UniProt Q495A1 22-141)", "T10 construct": "point mutant expressed in E. coli", "T10 chain": "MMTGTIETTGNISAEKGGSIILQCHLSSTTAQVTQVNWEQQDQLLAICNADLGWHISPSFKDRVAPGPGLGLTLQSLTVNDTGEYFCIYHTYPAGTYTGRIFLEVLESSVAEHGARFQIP", "assay": "SPR, antibody captured on anti-human Fc, TIGIT ECD injected"}, "human TIGIT ECD P114G": {"molecular_target": "T11, human TIGIT ECD P114G (human, UniProt Q495A1 22-141)", "T11 construct": "point mutant expressed in E. coli", "T11 chain": "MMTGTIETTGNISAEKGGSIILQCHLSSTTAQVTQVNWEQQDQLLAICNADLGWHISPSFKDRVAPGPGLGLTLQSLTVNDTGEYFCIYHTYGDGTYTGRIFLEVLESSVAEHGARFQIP", "assay": "SPR, antibody captured on anti-human Fc, TIGIT ECD injected"}, "[2]": {"molecular_target": "T12, human TIGIT ECD expressed on the CHO-S cell surface (human, UniProt Q495A1 22-141)", "T12 construct": "sections 3.13 and 4.1 say only stably expressing human TIGIT; also called CHO-S-hTIGIT; CHO-S-huTIGIT", "T12 sequence": "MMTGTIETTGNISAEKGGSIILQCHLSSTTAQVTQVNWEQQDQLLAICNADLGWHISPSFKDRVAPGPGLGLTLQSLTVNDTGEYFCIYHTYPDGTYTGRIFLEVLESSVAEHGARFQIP", "assay": "flow cytometry blocking assay on CHO-S-hTIGIT cells, competitor muCD112; competitor muCD112; human IgG 3963H03-12"}},
  "data": [
    {"binder": "B1", "values": [
      {"measurement": "Kd", "setting": "human TIGIT ECD T51A", "result": 1.77, "unit": "nM"},
      {"measurement": "ΔΔGmut", "setting": "human TIGIT ECD T51A", "result": -0.1, "unit": "kcal/mol"},
      {"measurement": "Kd", "setting": "human TIGIT ECD T117A", "result": 1.58, "unit": "nM"},
      {"measurement": "ΔΔGmut", "setting": "human TIGIT ECD T117A", "result": -0.17, "unit": "kcal/mol"},
      {"measurement": "ΔΔGmut", "setting": "human TIGIT ECD Q53A", "result": "> 3", "unit": "kcal/mol"},
      {"measurement": "Kd", "setting": "human TIGIT ECD Q56A", "result": 33.9, "unit": "nM"},
      {"measurement": "ΔΔGmut", "setting": "human TIGIT ECD Q56A", "result": 1.65, "unit": "kcal/mol"},
      {"measurement": "Kd", "setting": "human TIGIT ECD N70A", "result": 31.5, "unit": "nM"},
      {"measurement": "ΔΔGmut", "setting": "human TIGIT ECD N70A", "result": 1.61, "unit": "kcal/mol"},
      {"measurement": "Kd", "setting": "human TIGIT ECD A71G", "result": 7.02, "unit": "nM"},
      {"measurement": "ΔΔGmut", "setting": "human TIGIT ECD A71G", "result": 0.72, "unit": "kcal/mol"},
      {"measurement": "Kd", "setting": "[1]", "result": 2.08, "unit": "nM"},
      {"measurement": "ΔΔGmut", "setting": "[1]", "result": 0, "unit": "kcal/mol"},
      {"measurement": "Kd", "setting": "human TIGIT ECD H111A", "result": 30.9, "unit": "nM"},
      {"measurement": "ΔΔGmut", "setting": "human TIGIT ECD H111A", "result": 1.6, "unit": "kcal/mol"},
      {"measurement": "ΔΔGmut", "setting": "human TIGIT ECD Y113A", "result": "> 3", "unit": "kcal/mol"},
      {"measurement": "Kd", "setting": "human TIGIT ECD D115A", "result": 14.4, "unit": "nM"},
      {"measurement": "ΔΔGmut", "setting": "human TIGIT ECD D115A", "result": 1.14, "unit": "kcal/mol"},
      {"measurement": "ΔΔGmut", "setting": "human TIGIT ECD P114G", "result": "> 3", "unit": "kcal/mol"},
      {"measurement": "IC50", "setting": "[2]", "result": 1.68, "unit": "µg/mL"}
    ]}
  ]
}
